Target: Kv4.2-T1 domain (tetramerization domain of Kv4.2) with a poly-His tag at the NH2 terminus
Experiment: SEC

Kv4.2-T1 domain (tetramerization domain of Kv4.2) with a poly-His tag at the NH2 terminus, sequence (Q63881 whole entry, the tested form may be a part): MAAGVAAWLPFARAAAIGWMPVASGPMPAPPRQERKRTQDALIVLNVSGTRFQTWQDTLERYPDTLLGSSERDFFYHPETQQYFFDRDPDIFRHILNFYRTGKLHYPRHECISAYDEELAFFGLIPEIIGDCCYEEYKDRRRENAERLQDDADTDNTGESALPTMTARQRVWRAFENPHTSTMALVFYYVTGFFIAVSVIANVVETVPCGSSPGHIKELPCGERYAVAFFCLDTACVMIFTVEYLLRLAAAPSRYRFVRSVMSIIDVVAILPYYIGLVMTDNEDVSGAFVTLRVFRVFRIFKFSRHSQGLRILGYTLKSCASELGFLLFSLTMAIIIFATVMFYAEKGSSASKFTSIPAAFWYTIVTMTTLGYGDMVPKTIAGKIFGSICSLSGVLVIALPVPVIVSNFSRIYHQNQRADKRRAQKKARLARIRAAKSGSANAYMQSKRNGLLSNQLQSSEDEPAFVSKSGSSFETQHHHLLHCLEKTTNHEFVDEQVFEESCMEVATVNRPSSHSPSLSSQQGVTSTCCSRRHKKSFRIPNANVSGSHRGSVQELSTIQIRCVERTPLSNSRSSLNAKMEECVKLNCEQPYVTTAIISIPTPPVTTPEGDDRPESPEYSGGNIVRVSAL

stoichiometry N: 4
Substance: Kv4.2-T1 domain (tetramerization domain of Kv4.2) with a poly-His tag at the NH2 terminus (domain or fragment)

From paper PMC2266617
